Test results reported in US5534428.

Test system: SstI restriction endonuclease (Streptomyces stanford ATCC 29415)
Assay: cleavage_in_vitro
Conditions: pSst105 crude extract; REact 2 buffer, 37 C, 1 h; assay substrate Ad-2 DNA per Example 1.7

In the case of Adenovirus-2 DNA, the activity (units per g cells) is reported as > 400000.
